Data set [1] addresses T1, Hpy188I restriction endonuclease (selenomethionine variant) (UniProt Q9KJ88 1-170).
T1 sequence: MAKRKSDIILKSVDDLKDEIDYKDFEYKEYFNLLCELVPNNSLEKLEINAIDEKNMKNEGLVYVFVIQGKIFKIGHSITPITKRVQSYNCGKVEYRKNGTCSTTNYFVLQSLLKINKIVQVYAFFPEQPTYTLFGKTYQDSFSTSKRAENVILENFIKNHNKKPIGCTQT
Description: X-ray crystallography.

The target of data set [2] is T1, Hpy188I restriction endonuclease …. Nature of the data set: X-ray crystallography. This is another data set of the same source.
Data set [3] deals with T2, Hpy188I restriction endonuclease (native Met) (UniProt Q9KJ88 1-170).
T2 sequence: T1 sequence
Nature of the data set: co-crystallization.

Like-named read-outs stand apart in the source and are kept apart here.

B1: 9-mer target oligoduplex cleaved in crystal at TCN|GA (product) (dsDNA)
DNA 1: GATCT
DNA 2: GAAC
DNA 3: GTTCA
DNA 4: GATC
For B1, the binding result in data set [1] is listed as “binds”.

B2: 9-mer target oligoduplex (uncleaved) (dsDNA)
DNA 1: GATCTGAAC
DNA 2: GTTCAGATC
As to B2, the binding result in data set [2] and in data set [3] was “binds” in each case.

Source of the values: PMC3045582.
